From paper PMC4993509 (PLoS ONE, 2016)

Molecular target: the molecule itself
Assay: SEC-MALS; Superdex 200 HR 10/30 coupled to three-angle light scattering (mini-DAWN EOS) and refractive index detector, flow 0.2 ml/min

B1: C-terminal histidine-tagged SYCP1 CC (coiled-coil domain of human synaptonemal complex protein 1, residues 662-801) (domain or fragment, UniProt Q15431 662-801, looked up)
chain: DTYQKEIEDKKISEENLLEEVEKAKVIADEAVKLQKEIDKRCQHKIAEMVALMEKHKHQYDKIIEERDSELGLYKSKEQEQSSLRASLEIELSNLKAELLSVKKQLEIEREEKEKLKREAKENTATLKEKKDKKTQTFLL
notes: synaptonemal complex protein 1 (SYCP1), human, coiled-coil domain region, residues 662 (D)-801 (L); A selenomethionine-substituted form was also made and crystallised; the final model holds residues 673-767 (chain A) and 673-769 (chain B); also called SYCP CC; wildtype; source: E. coli BL21 (pET24a), purified (Ni-NTA, Superdex 200 gel filtration); not shown: His tag, C-terminal, kept
- stoichiometry N: 2
